FRET efficiency (%) data for 4 molecules are collected here from paper PMC2118540.

Where two headings read alike, the source gives them in different places.

What all share (test): FRET or BRET
A general note: Bioluminescence resonance energy transfer reports proximity on the nanometre scale.

In test [1] the target is HLA-A, B, C (human (endogenous in KU812)).
The target of test [2] is H-2K^b/D^b (mouse (endogenous in BMMCs)).
The target is the same in test [3]. The source holds these as a separate data set.

The molecule “β2-microglobulin (β2m), human (from UniProt P61769 21-119) (natural protein)” gave an FRET efficiency (%) in test [1] of 14.5%.
Consider “β2-microglobulin (β2m), mouse (from UniProt P01887 21-119) (natural protein)”, for which, in test [2], the FRET efficiency (%) came out at 8%.
On to “leukocyte immunoglobulin (Ig)-like receptor (LILR) B2 (from UniProt Q8N423 22-597)”, for which the FRET efficiency (%) in test [1] was 20.7%.

B1: paired Ig-like receptor (PIR)–B (receptor)
chain: SLPKPILRVQPDSVVSRRTKVTFLCEETIGANEYRLYKDGKLYKTVTKNKQKPENKAEFSFSNVDLSNAGQYRCSYSTQYKSSGYSDLLELVVTGHYWTPSLLAQASPVVTSGGYVTLQCESWHNDHKFILTVEGPQKLSWTQDSQYNYSTRKYHALFSVGPVTPNQRWICRCYSYDRNRPYVWSPPSESVELLVSGNLQKPTIKAEPGSVITSKRAMTIWCQGNLDAEVYFLHNEKSQKTQSTQTLQEPGNKGKFFIPSVTLQHAGQYRCYCYGSAGWSQPSDTLELVVTGIYEYYEPRLSVLPSPVVTAGGNMTLHCASDFPYDKFILTKEDKKFGNSLDTEHISSSGQYRALFIIGPTTPTHTGAFRCYGYYKNAPQLWSVPSALQQILISGLSKKPSLLTHQGHILDPGMTLTLQCFSDINYDRFALHKVGGADIMQHSSQQTDTGFSVANFTLGYVSSSTGGQYRCYGAHNLSSEWSASSEPLDILITGQLPLTPSLSVQPNHTVHSGETVSLLCWSMDSVDTFILSKEGSAQQPLRLKSKSHDQQSQAEFSMSAVTSHLSGTYRCYGAQDSSFYLLSSASAPVELTVSGPIETSTPPPTMSMPLGGLHMYLKALIGVSVAFILFLFIFIFILLRRRHRGKFRKDVQKEKDLQLSSGAEEPITRKGELQKRPNPAAATQEESLYASVEDMQTEDGVELNSWTPPEEDPQGETYAQVKPSRLRKAGHVSPSVMSREQLNTEYEQAEEGQGANNQAAESGESQDVTYAQLCSRTLRQGAAASPLSQAGEAPEEPSVYATLAAARPEAVPKDMEQ
modifications: tyrosine-phosphorylated, constitutively and after IgE stimulation (residues not given)
In the case of B1, the FRET efficiency (%) in test [3] was 13.5%.
